We go through three molecules from article PMC6158740 (Nucleic Acids Research, 2018).

The target of data set [1] is ComM (Vibrio cholerae, UniProt Q9KVV6). Conditions: AMP-PNP, nonhydrolyzable analogue; pH 7.5, 37 °C.
For data set [2], the target named is T1, ComM (Vibrio cholerae, UniProt Q9KVV6 1-507).
T1 sequence: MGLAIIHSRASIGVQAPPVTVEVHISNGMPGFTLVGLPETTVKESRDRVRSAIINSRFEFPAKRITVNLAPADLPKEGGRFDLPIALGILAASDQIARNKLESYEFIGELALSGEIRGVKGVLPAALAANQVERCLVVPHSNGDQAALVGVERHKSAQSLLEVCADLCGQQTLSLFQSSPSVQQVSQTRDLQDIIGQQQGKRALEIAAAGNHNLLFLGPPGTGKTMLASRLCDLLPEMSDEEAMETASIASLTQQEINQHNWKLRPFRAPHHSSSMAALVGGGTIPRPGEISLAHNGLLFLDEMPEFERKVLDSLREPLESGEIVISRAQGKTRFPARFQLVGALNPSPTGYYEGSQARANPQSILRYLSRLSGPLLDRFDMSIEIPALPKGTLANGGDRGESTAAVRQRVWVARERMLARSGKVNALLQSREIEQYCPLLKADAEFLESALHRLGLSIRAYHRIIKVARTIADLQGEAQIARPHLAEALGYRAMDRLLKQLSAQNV
The data set is described as follows: EMSA. A general note: A gel shift assay detects complexes by their altered migration in electrophoresis.

As to `Nc1ncnc2c1ncn2[C@@H]1O[C@H](COP(=O)(O)OP(=O)(O)NP(=O)(O)O)[C@@H](O)[C@H]1O` [AMP-PNP], on ComM [1], the “three-strand branch migration assay, gel; oligomerization assay” value was “This activity was inhibited when ComM was incubated with AMP-PNP”.

For the molecule ATTCCGGGGATCCGTCGACCTGCAGTTCAGAAGCAGCTCCAGCCTACA (ssDNA) [BBC742 ssDNA probe], in the data set with ComM [2], the binding result is recorded as “binds”.

B1: BBC742/BBC743 dsDNA probe (dsDNA)
DNA 1: ATTCCGGGGATCCGTCGACCTGCAGTTCAGAAGCAGCTCCAGCCTACA
DNA 2: TGTAGGCTGGAGCTGCTTCTGAACTGCAGGTCGACGGATCCCCGGAAT
Consider B1, for which the binding result in the data set with ComM [2] is “binds”.
